“And” between values parts separate entries of the source, which are not always exact repeats. Equal values may be shown once.
What was measured:
[1] = target: the molecule itself; test: native MS; nano-ESI, 100 mM ammonium acetate pH 8.0, ~5 uM (oligomer concentration)
[2] = target: the molecule itself; test: SEC; analytical size-exclusion chromatography, Superdex 200 16/60, 50 mM Tris-HCl pH 8.0, 150 mM NaCl, calibrated with standards of known molecular weight
[3] = target: the molecule itself; test: SDS-PAGE (resistance of oligomers to SDS and heat denaturation); SDS-PAGE of the size-exclusion peak fractions
[4] = target: the molecule itself; test: crystal structure; sitting drop vapour diffusion; Hoch_EncFtn in 0.2 M NaCl, 0.1 M Bis-Tris pH 5.5, 20 % PEG 3350; Pfc_EncFtn in 0.2 M LiSO4, 20 % PEG 3350; molecular replacement with PDB 5DA5

| Protein | stoichiometry N [1] | stoichiometry N [2] | stoichiometry N [3] | stoichiometry N [4] |
| --- | --- | --- | --- | --- |
| Rhodospirillum rubrum encapsulated ferritin, hexahistidine-tagged variant (natural protein, UniProt Q2RVS1 1-140, looked up) MAQSSNSTHEPLEVLKEETVNRHRAIVSVMEELEAVDWYDQRVDASTDPELTAILAHNRDEEKEHAAMTLEWLRRNDAKWAEHLRTYLFTEGPITAIEAADTAGEGSGGDAAKGATAQGDGSLGIGSLKGEAALARPPRL | 10 |  |  |  |
| Rhodospirillum rubrum encapsulated ferritin, Strep-tagged variant (natural protein, UniProt Q2RVS1 1-140, looked up, source: recombinant, purified by Strep-Trap column HP) MAQSSNSTHEPLEVLKEETVNRHRAIVSVMEELEAVDWYDQRVDASTDPELTAILAHNRDEEKEHAAMTLEWLRRNDAKWAEHLRTYLFTEGPITAIEAADTAGEGSGGDAAKGATAQGDGSLGIGSLKGEAALARPPRL |  | 10 |  |  |
| Pyrococcus furiosus encapsulated ferritin domain, residues 1-99, C-terminal StrepII-tagged variant (domain or fragment, UniProt Q8U1L4 1-99, looked up, EncFtn domain (residues 1-99) of the single contiguous EncFtn-encapsulin polypeptide of Pyrococcus furiosus; locus tag printed as Pfc_01575, Pfc_05157 and Pfc_05175; source: E. coli BL21(DE3), purified (Strep-Trap HP); not shown: StrepII, C-terminal, kept) MLSINPTLINRDKPYTKEELMEILRLAIIAELDAINLYEQMARYSEDENVRKILLDVAREEKAHVGEFMALLLNLDPEQVTELKGGFEEVKELTGIEAH |  | 10 and ~20 | 2 |  |
| Pyrococcus furiosus encapsulated ferritin domain, residues 1-99, C-terminal hexahistidine tagged variant (domain or fragment, UniProt Q8U1L4 1-99, looked up, EncFtn domain (residues 1-99) of the single contiguous EncFtn-encapsulin polypeptide of Pyrococcus furiosus; locus tag printed as Pfc_01575, Pfc_05157 and Pfc_05175; source: E. coli BL21(DE3), purified (HisTrap FF, S200 size-exclusion chromatography); not shown: His6, C-terminal, kept) MLSINPTLINRDKPYTKEELMEILRLAIIAELDAINLYEQMARYSEDENVRKILLDVAREEKAHVGEFMALLLNLDPEQVTELKGGFEEVKELTGIEAH | 10 | ~10 |  |  |
| Pyrococcus furiosus encapsulated ferritin domain as crystallised (PDB 5N5E) (domain or fragment, UniProt Q8U1L4 1-99, looked up, EncFtn domain (residues 1-99) of the single contiguous EncFtn-encapsulin polypeptide of Pyrococcus furiosus; electron density visible for residues 2-98 in each chain; source: E. coli BL21(DE3), purified; copies: 10) MLSINPTLINRDKPYTKEELMEILRLAIIAELDAINLYEQMARYSEDENVRKILLDVAREEKAHVGEFMALLLNLDPEQVTELKGGFEEVKELTGIEAH |  |  |  | 10 |

Reference: doi:10.1101/431494, “Conservation of the structural and functional architecture of encapsulated ferritins in bacteria and archaea” (bioRxiv, 2018)
